Results on 3 molecules are retold here after US7314724B2, “Therapeutic applications of laminin and laminin-derived protein fragments” (University of Washington, priority 1996, dated 2008).

“Also recorded” adds a separate entry of the source.

Data set [1] concerns the target T1, Aβ (1-40) (Homo sapiens, UniProt P05067).
T1 construct: 2 μg of Aβ (1-40)(Bachem Inc., Torrance, Calif. USA; Lot #WM365); purchased Bachem Inc., Torrance, Calif; Lot #WM365
The experiment in a line: Thioflavin T fluorometry, Aβ (1-40) amyloid fibril formation. Conditions: comparison of basement membrane components (FIG. 3), 25 μM Aβ (1-40), 100 nM, 1 hour to 1 week. It counts as biochemical. On the procedure: The effects of laminin on Aβ fibrillogenesis was also determined using the previously described method of Thioflavin T fluorometry (Naiki et al, Lab. Invest. 65:104-110, 1991; Levine III, Protein Sci. 2:404-410, 1993; Levine III, Int. J. Exp. Clin. Invest. 2:1-6, 1995; Naiki and Nakakuki, Lab. Invest. 74:374-383, 1996). In this assay, Thioflavin T binds specifically to fibrillar amyloid and this binding produces a fluorescence enhancement at 480 nm that is directly proportional to the amount of amyloid fibrils formed (Naiki et al, Lab. Invest. 65:104-110, 1991; Levine III, Protein Sci. 2:404-410, 1993; Levine III, Int. J. Exp. Clin. Invest. 2:1-6, 1995; Naiki and Nakakuki, Lab. Invest. 74:374-383, 1996). In a first study, the effects of EHS laminin on Aβ (1-40) fibrillogenesis was assessed. For this study, 25 μM of freshly solubilized Aβ (1-40)(Bachem Inc., Torrance, Calif., USA; Lot #WM365) was incubated in microcentrifuge tubes at 37° C. for 1 week (in triplicate), either alone, or in the presence of 100 nM EHS laminin (Sigma Chemical Company, St. Louis, Mo., USA) in 100 mM Tris, 50 mM NaCl, pH 7.0 (TBS). 100 nM of laminin utilized for these studies represented a Aβ:laminin molar ratio of 250:1. 50 μl aliquots were then taken from each tube for analysis at 1 hr, 1 day, 3 days, and 1 week. In a second set of studies, the effects of laminin on Aβ (1 -40) fibril formation was directly compared to other basement membrane components including fibronectin, type IV collagen and perlecan. For these studies, 25 μM of freshly solubilized Aβ (1-40) was incubated in microcentrifuge tubes for 1 week (in triplicate) either alone, or in the presence of 100 nM of EHS perlecan (isolated as previously described)(Castillo et al, J. Biochem. 120:433-444, 1996), fibronectin (Sigma Chemical Company, St. Louis, Mo., USA) or type IV collagen (Sigma Chemical Company, St. Louis, Mo., USA). 50 ul aliquots were then taken for analysis at 1 hour, 1 day, 3 days and 1 week. In a third set of studies, 25 μM of freshly solubilized Aβ (1-40) was incubated in microcentrifuge tubes for 1 week (in triplicate) either alone, or in the presence of increasing concentrations of laminin (i.e. 5 nM, 15 nM, 40 nM and 100 nM). 50 μl aliquots were taken for analysis at 1 hour, 1 day, 3 days and 1 week.
For each determination described above, following each incubation period, Aβ peptides +/− laminin, perlecan, fibronectin or type IV collagen, were added to 1.2 ml of 100 μM Thioflavin T (Sigma Chemical Co., St. Louis, Mo.) in 50 mM phosphate buffer (pH 6.0). Fluorescence emission at 480 nm was measured on a Turner instrument-model 450 fluorometer at an excitation wavelength of 450 nm. For each determination, the fluorometer was calibrated by zeroing in the presence of the Thioflavin T reagent alone, and by seting the 50 ng/ml riboflavin (Sigma Chemical Co., St. Louis, Mo.) in the Thioflavin T reagent to 1800 fluorescence units. All fluorescence determinations were based on these references and any background fluorescence given off by laminin, perlecan, type IV collagen, or fibronectin alone in the presence of the Thioflavin T reagent was always subtracted from all pertinent readings.

Data set [2] has as its target T2, biotinylated Aβ (1-40) (Homo sapiens, UniProt P05067).
T2 construct: Aβ (1-40) was biotinylated according to the manufacturer's protocol (Pierce, Rockford, Ill.)
Briefly: Aβ ligand blot of undigested and V8-, trypsin- or elastase-digested EHS laminin. The format is binding. Conditions: 2 μM biotinylated Aβ (1-40), SDS-PAGE under non-reducing conditions. On the procedure: For these experiments, Aβ (1-40) was biotinylated according to the manufacturer's protocol (Pierce, Rockford, Ill.). For the ligand studies, intact EHS laminin was left undigested, or digested with V8 or trypsin (Sigma Chemical Company, St. Louis, Mo., USA). More specifically, 2 μg of trypsin or V8 protease in 2 μl of 50 MM Tris-HCl buffer (pH 8.0) were added to 50 μl of laminin (50 μg)(in the same buffer) and incubated overnight at 37° C. The next day, 10 μl of protease-digested laminin (or undigested laminin) was mixed with 10 μl of 2× sodium dodecyl sulfate polyacrylamide gel electrophoresis (SDS-PAGE) sample buffer, and heated for 5 minutes in a boiling water bath. SDS-PAGE was performed according to the method of Laemmli (Laemmli, U.K. Nature 227:680-685, 1970), or according to the method of Schägger and Jagow (Schägger and Jagow, Anal. Biochem. 166:368-379, 1987) using a Mini-Protean II electrophoresis system (Biorad) with precast 4-15% Tris-Glycine or 10-20% tricine polyacrylamide gels, respectively, and under non-reducing conditions. Electrophoresis occurred at 200V for 45 minutes along with pre-stained molecular weight standards. After SDS-PAGE (10-20% tricine or 4-15% Tris-Glycine gels) was performed as described above, the separated laminin and its fragments (total protein of 10 μg/lane) were transferred to polyvinylidine difluoride membrane (PVDF) using a Mini transblot electrophoresis transfer cell (Biorad, Hercules, Calif., U.S.A.). Electrotransfer was performed at 100V for 2 hours. Following transfer, membranes were rinsed with methanol and dried. The fragment(s) of laminin involved in binding to Aβ were then detected by using biotinylated-Aβ (1-40), as described above. Blots were probed for 2 hours with 2 μM biotinylated Aβ (1-40) in TTBS. The membranes were then rinsed three times (10 seconds each) with TTBS, probed for 30 minutes with strepavidin alkaline phosphatase conjugate (Vectastain), rinsed again (as described above), and followed by the addition of an alkaline phosphatase substrate solution (Vectastain). Following color development, the reaction was stopped by flushing the membranes with double distilled water. In the next set of studies, we determined whether small fragment(s) of laminin generated by elastase digestion would bind to Aβ. […] For these experiments, Aβ (1-40) was biotinylated according to the manufacturer's protocol (Pierce, Rockford, Ill.). For the ligand studies, intact EHS laminin was left undigested, or digested with elastase (Sigma Chemical Company, St. Louis, Mo., USA). For elastase digestion, 2 μg of elastase in 8 μl of 50 mM Tris-HCl buffer (pH 8.0) was added to 50 μl of laminin (50 μg)(in the same buffer) and incubated for 1.5 hours or 2.5 hours at 37° C. In addition, as a control, 2 μg of elastase in 50 μl of 50 mM Tris-HCl buffer (pH 8.0) was incubated for 2.5 hours at 37° C. Following the appropriate incubation times as described above, 10 μl of each of the above incubations were mixed with 10 μl of 2× SDS-PAGE electrophoresis sample buffer, and heated for 5 minutes in a boiling water bath. SDS-PAGE was performed according to the method of Laemmli (Laemmli, Nature 227:680-685, 1970) using a Mini-Protean II electrophoresis system with precast 4-15% Tris-Glycine polyacrylamide gels, and under non-reducing conditions. Electrophoresis occurred at 200V for 45 minutes along with pre-stained molecular weight standards (Biorad). After SDS-PAGE was performed as described above, the separated laminin fragments were transferred to PVDF using a Mini transblot electrophoresis transfer cell (Millipore, Bedford, Mass., U.S.A.). Electrotransfer was performed at 100V for 2 hours. Following transfer, membranes were rinsed with methanol, dried and cut into two equal parts which were used for Aβ ligand blotting, or Coomassie blue staining and subsequent amino acid sequencing. The fragment(s) of laminin involved in binding to Aβ were then detected by using biotinylated-Aβ (1-40), as described above. […]

T2 sequence (P05067 672-711 limits assumed): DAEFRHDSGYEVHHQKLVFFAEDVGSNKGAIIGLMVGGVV
T1 sequence (P05067 672-711 limits assumed): as above

Regarding “perlecan: EHS perlecan, basement membrane component used as comparison [reference compound]”, the “effect on Aβ (1-40) fibrillogenesis, in words” value in data set [1] is “not effective inhibitors”; in data set [1] (listed as Perlecan) it was “significantly accelerate Aβ (1-40) amyloid formation at 1 day and 3 days”.

In the case of fibronectin [reference compound], the “effect on Aβ (1-40) fibrillogenesis, in words” value in data set [1] is given as “not effective inhibitors; also recorded: only showed significant inhibition of Aβ (1-40) fibrillogenesis at 1 week”.

B1: ˜55 kilodalton (kDa) laminin fragment: ˜55 kDa Aβ-binding fragment from V8 or elastase digested mouse EHS laminin; within globular repeats of the laminin A chain (E3 region) (protein)
chain: HREHGELPPEPPTLPQPELCAVDTAPGYVAGAHQFGLSQNSHLVLPLNQSDVRKRLQVQLSIRTFASSGLIYYVAHQNQMDYATLQLQEGRLHFMFDLGKGRTKVSHPALLSDGKWHTVKTEYIKRKAFMTVDGQESPSVTVVGNATTLDVERKLYLGGLPSHYRARNIGTITHSIPACIGEIMVNGQQLDKDRPLSASAVDRCYVVAQEGTFFEGSGYAALVKEGYKVRLDLNITLEFRTTSKNGVLLGISSAKVDAIGLEIVDGKVLFHVNNGAGRITATYQPRAARALCDGKWHTLQAHKSKHRIVLTVDGNSVRAESPHTHSTSADTNDPIYVGGYPAHIKQNCLSSRASFRGCVRNLRLSRGSQVQSLDLSRAFDLQGVFPHSCPGPEP
B1: the “interaction with biotinylated Aβ (1-40) on ligand blot, in words” value in data set [2] was “interact with biotinylated Aβ (1-40)”; in data set [2] (listed as 55 kDa laminin fragment), “positive Aβ binding interaction”; in data set [2] (listed as ˜55 kDa) it was “interacted with Aβ (1-40)”; in data set [2] (listed as ˜55 kilodalton fragment) it was “interacts with Aβ”; in data set [2] (listed as ˜55 kilodalton laminin fragment), “binds biotinylated Aβ”.
